Laboratory results published in US20190060473A1, “HSP90 INHIBITOR DRUG CONJUGATES” (priority 2016, published 2019).
Where two headings read alike, the source gives them in different places.

Key:
[1] = tested on: HER2 expression in BT-474 human breast cancer cells; experiment: In-Cell Western assay (ICW) for HER2 expression in BT-474 cells; type: cell-based
Experimental: The HDCs as described herein were used in various experiments to determine their activity and properties, such as binding affinity and stability in blood. An in-Cell Western assay (ICW) for HER2 expression was carried out in BT-474 human breast cancer cells. BT-474 cells were seeded in 96-well plates at a density of 20,000 cells per well. Twenty-four hours after plating, cells were dosed with graded concentrations of HDCs using 3-fold serial dilutions and incubated for 24 h. Growth media containing drug was aspirated off. Cells were then fixed in 4% paraformaldehyde for 20 min and washed three times in 0.1% Triton X-100. After blocking for 1.5 h in Odyssey Blocking Buffer (LI-COR, Lincoln, Nebr., USA), cells were incubated with primary HER2 antibody overnight at 4° C. Wells were washed three times with 0.1% Tween-20 and incubated in secondary antibody (LI-COR, Lincoln, Nebr., USA) and DRAQ5 (CST, Beverly, Mass., USA) for 1 h. Following 3 final washes with 0.1% Tween-20, antibody-antigen complexes were visualized using the Odyssey system. For quantification, HER2 signal was normalized to DRAQ5 flourescent probe.

[2] = Metabolic stability in mouse whole blood (LC-MS/MS); type: in vitro ADME; details: for Mouse blood stability 1 h (% remaining): 10 μM
Experimental: Metabolic stability of various HDCs was tested in mouse blood. All compounds were tested at a concentration of 10 μM. The time dependent disappearance of test compound in mouse whole blood, and the release of the compound qualitatively as determined by liquid chromatography tandem mass spectrometry (LC-MS/MS), was tested at time points of 15 minutes, 30 minutes, 45 minutes and 1 hour. All compounds were tested in duplicate, and the average was taken. The results in Table 2 show the percent of test compound remaining after 1 hour.

[3] = BT-474 cells, 24 h incubation, 3-fold serial dilutions, HER2 signal normalized to DRAQ5, read-out: HER2 (ICW)
[4] = mouse whole blood, percent of test compound remaining after 1 hour, average of duplicate

| Compound | IC50 [1, 3] | Mouse blood stability 1 h (% remaining) [2, 4] | also measured |
| --- | --- | --- | --- |
| CCNC(=O)c1nnc(-c2cc(C(C)C)c(O)cc2O)n1-c1ccc(CN2CCC(C(=O)NC3(C(=O)OC[C@@H](NC(=O)c4cc(-c5cc(NC(C)C)ncc5Cl)c[nH]4)c4cccc(Cl)c4)CC3)CC2)c(F)c1 [SDC-TRAP-0507, (S)-2-(4-(5-chloro-2-(isopropylamino)pyridin-4-yl)-1H-pyrrole-2-carboxamido)-2-(3-chlorophenyl)ethyl-(1-(4-(3-(2,4-dihydroxy-5-isopropylphenyl)-5-(ethylcarbamoyl)-4H-1,2,4-triazol-4-yl)-2-fluorobenzyl)piperidine-4-carboxamido)cyclopropanecarboxylate] | 304 nM | 105% |  |
| CC(C)Nc1cc(-c2c[nH]c(C(=O)N[C@H](COC(=O)C3(NC(=O)CCn4ccc5cc(-n6c(O)nnc6-c6cc(C(C)C)c(O)cc6O)ccc54)CC3)c3cccc(Cl)c3)c2)c(Cl)cn1 [SDC-TRAP-0508, (S)-2-(4-(5-chloro-2-(isopropylamino)pyridin-4-yl)-1H-pyrrole-2-carboxamido)-2-(3-chlorophenyl)ethyl 1-(3-(5-(3-(2,4-dihydroxy-5-isopropylphenyl)-5-hydroxy-4H-1,2,4-triazol-4-yl)-1H-indol-1-yl)propanamido)cyclopropanecarboxylate] | 2330 nM |  | Mouse blood stability 1 h (% remaining) ([2]; mouse, blood, 1 h): 32.4% |
| CC(C)Nc1cc(-c2c[nH]c(C(=O)N[C@H](COC(=O)C3(NC(=O)C4CCN(Cc5ccc(-n6c(O)nnc6-c6cc(C(C)C)c(O)cc6O)cc5F)CC4)CC3)c3cccc(Cl)c3)c2)c(Cl)cn1 [SDC-TRAP-0509, (S)-2-(4-(5-chloro-2-(isopropylamino)pyridin-4-yl)-1H-pyrrole-2-carboxamido)-2-(3-chlorophenyl)ethyl 1-(1-(4-(3-(2,4-dihydroxy-5-isopropylphenyl)-5-hydroxy-4H-1,2,4-triazol-4-yl)-2-fluorobenzyl)piperidine-4-carboxamido)cyclopropanecarboxylate] | 2690 nM | 86.9% |  |
| CCNC(=O)c1nnc(-c2cc(C(C)C)c(O)cc2O)n1-c1ccc(CN2CCC(C(=O)N3CCC(CC(=O)OC[C@@H](NC(=O)c4cc(-c5cc(NC(C)C)ncc5Cl)c[nH]4)c4cccc(Cl)c4)CC3)CC2)c(F)c1 [SDC-TRAP-0512, (S)-2-(4-(5-chloro-2-(isopropylamino)pyridin-4-yl)-1H-pyrrole-2-carboxamido)-2-(3-chlorophenyl)ethyl 2-(1-(1-(4-(3-(2,4-dihydroxy-5-isopropylphenyl)-5-(ethylcarbamoyl)-4H-1,2,4-triazol-4-yl)-2-fluorobenzyl)piperidine-4-carbonyl)piperidin-4-yl)acetate] | 60 nM | 100% |  |
| CCNC(=O)c1nnc(-c2cc(C(C)C)c(O)cc2O)n1-c1ccc(CN2CCC(C(=O)NC(C)(C)C(=O)OC[C@@H](NC(=O)c3cc(-c4cc(NC(C)C)ncc4Cl)c[nH]3)c3cccc(Cl)c3)CC2)c(F)c1 [SDC-TRAP-0514, (S)-2-(4-(5-chloro-2-(isopropylamino)pyridin-4-yl)-1H-pyrrole-2-carboxamido)-2-(3-chlorophenyl)ethyl 2-(1-(4-(3-(2,4-dihydroxy-5-isopropylphenyl)-5-(ethylcarbamoyl)-4H-1,2,4-triazol-4-yl)-2-fluorobenzyl)piperidine-4-carboxamido)-2-methylpropanoate] | 345 nM | 105% |  |
| CC(C)Nc1cc(-c2c[nH]c(C(=O)N[C@H](COC(=O)C3CCN(Cc4ccc(-n5c(O)nnc5-c5cc(C(C)C)c(O)cc5O)cc4F)CC3)c3cccc(Cl)c3)c2)c(Cl)cn1 [SDC-TRAP-0517, (S)-2-(4-(5-chloro-2-(isopropylamino)pyridin-4-yl)-1H-pyrrole-2-carboxamido)-2-(3-chlorophenyl)ethyl 1-(4-(3-(2,4-dihydroxy-5-isopropylphenyl)-5-hydroxy-4H-1,2,4-triazol-4-yl)-2-fluorobenzyl)piperidine-4-carboxylate] | 202 nM |  |  |
| CCNC(=O)c1nnc(-c2cc(C(C)C)c(O)cc2O)n1-c1ccc(CN2CCC(C(=O)OC[C@@H](NC(=O)c3cc(-c4cc(NC(C)C)ncc4Cl)c[nH]3)c3cccc(Cl)c3)CC2)c(F)c1 [SDC-TRAP-0518, (S)-2-(4-(5-chloro-2-(isopropylamino)pyridin-4-yl)-1H-pyrrole-2-carboxamido)-2-(3-chlorophenyl)ethyl 1-(4-(3-(2,4-dihydroxy-5-isopropylphenyl)-5-(ethylcarbamoyl)-4H-1,2,4-triazol-4-yl)-2-fluorobenzyl)piperidine-4-carboxylate] | 104 nM |  |  |
| CC(C)Nc1cc(-c2c[nH]c(C(=O)N[C@H](COC(=O)[C@@H](C)NC(=O)C3CCN(Cc4ccc(-n5c(O)nnc5-c5cc(C(C)C)c(O)cc5O)cc4F)CC3)c3cccc(Cl)c3)c2)c(Cl)cn1 [SDC-TRAP-0519] | 1650 nM |  |  |
| CCNC(=O)c1nnc(-c2cc(C(C)C)c(O)cc2O)n1-c1ccc(N(C)C2CCN(C(=O)CCC(=O)OC[C@H](O)Cn3cnc4c(c(Nc5ccc(I)cc5F)c(F)c(=O)n4C)c3=O)CC2)nc1 [SDC-TRAP-0525, (R)-3-(6-fluoro-5-((2-fluoro-4-iodophenyl)amino)-8-methyl-4,7-dioxo-7,8-dihydropyrido[2,3-d]pyrimidin-3(4H)-yl)-2-hydroxypropyl 4-(4-((5-(3-(2,4-dihydroxy-5-isopropylphenyl)-5-(ethylcarbamoyl)-4H-1,2,4-triazol-4-yl)pyridin-2-yl)(methyl)amino)piperidin-1-yl)-4-oxobutanoate] |  | 10.8% |  |
| CC(C)c1cc(-c2nnc(O)n2-c2ccc(CN3CCC(C(=O)N4CC[C@H](C(=O)OC[C@H](O)Cn5cnc6c(c(Nc7ccc(I)cc7F)c(F)c(=O)n6C)c5=O)C4)CC3)c(F)c2)c(O)cc1O [SDC-TRAP-0528] |  | 0% |  |
| CCNC(=O)c1nnc(-c2cc(C(C)C)c(O)cc2O)n1-c1ccc(C(=O)N[C@H](C(=O)N[C@@H](CC(C)C)C(=O)N(C)[C@@H](C(=O)N[C@H](C(=O)N(C)C([C@@H](C)CC)[C@@H](CC(=O)N2CCC[C@@H]2[C@@H](OC)[C@@H](C)C(=O)N[C@@H](C)[C@H](O)c2ccccc2)OC)C(C)C)C(C)C)C(C)C)cc1 (stereo partly drawn) [SDC-TRAP-0538, 4-(4-(((3R,7S,10R,13S,16S)-4-((S)-sec-butyl)-3-(2-((R)-2-((1S,2R)-3-(((1R,2S)-1-hydroxy-1-phenylpropan-2-yl)amino)-1-methoxy-2-methyl-3-oxopropyl)pyrrolidin-1-yl)-2-oxoethyl)-13-isobutyl-7,10-diisopropyl-5,11,17-trimethyl-6,9,12,15-tetraoxo-2-oxa-5,8,11,14-tetraazaoctadecan-16-yl)carbamoyl)phenyl)-5-(2,4-dihydroxy-5-isopropylphenyl)-N-ethyl-4H-1,2,4-triazole-3-carboxamide] |  |  | remaining at 1 h, 10 μM [2, 4]: 118% |
| CCNC(=O)c1nnc(-c2cc(C(C)C)c(O)cc2O)n1-c1ccc(C(=O)N[C@@H](CC(C)C)C(=O)N[C@@H](CC(C)C)C(=O)N(C)[C@@H](C(=O)N[C@H](C(=O)N(C)C([C@@H](C)CC)[C@@H](CC(=O)N2CCC[C@@H]2[C@@H](OC)[C@@H](C)C(=O)N[C@@H](C)[C@H](O)c2ccccc2)OC)C(C)C)C(C)C)cc1 (stereo partly drawn) [SDC-TRAP-0539, 4-(4-(((3R,7S,10R,13S,16S)-4-((S)-sec-butyl)-3-(2-((R)-2-((1S,2R)-3-(((1R,2S)-1-hydroxy-1-phenylpropan-2-yl)amino)-1-methoxy-2-methyl-3-oxopropyl)pyrrolidin-1-yl)-2-oxoethyl)-13-isobutyl-7,10-diisopropyl-5,11,18-trimethyl-6,9,12,15-tetraoxo-2-oxa-5,8,11,14-tetraazanonadecan-16-yl)carbamoyl)phenyl)-5-(2,4-dihydroxy-5-isopropylphenyl)-N-ethyl-4H-1,2,4-triazole-3-carboxamide] |  |  | remaining at 1 h, 10 μM [2, 4]: 106% |
| CCNC(=O)c1nnc(-c2cc(C(C)C)c(O)cc2O)n1-c1ccc(C(=O)N[C@H](C(=O)N[C@@H](CCCNC(N)=O)C(=O)N(C)[C@@H](C(=O)N[C@H](C(=O)N(C)C([C@@H](C)CC)[C@@H](CC(=O)N2CCC[C@@H]2[C@@H](OC)[C@@H](C)C(=O)N[C@@H](C)[C@H](O)c2ccccc2)OC)C(C)C)C(C)C)C(C)C)cc1 (stereo partly drawn) [SDC-TRAP-0540, 4-(4-(((3R,7S,10R,13S,16S)-4-((S)-sec-butyl)-3-(2-((R)-2-((1S,2R)-3-(((1R,2S)-1-hydroxy-1-phenylpropan-2-yl)amino)-1-methoxy-2-methyl-3-oxopropyl)pyrrolidin-1-yl)-2-oxoethyl)-7,10-diisopropyl-5,11,17-trimethyl-6,9,12,15-tetraoxo-13-(3-ureidopropyl)-2-oxa-5,8,11,14-tetraazaoctadecan-16-yl)carbamoyl)phenyl)-5-(2,4-dihydroxy-5-isopropylphenyl)-N-ethyl-4H-1,2,4-triazole-3-carboxamide] |  |  | remaining at 1 h, 10 μM [2, 4]: 55.5% |
| CC(C)c1cc(-c2n[nH]c(=O)n2-c2ccc3c(ccn3C)c2)c(O)cc1O [ganetespib, reference compound] |  |  | IC50 ([1]; Homo sapiens, BT-474, 24 h, read-out: HER2 (ICW, nM)): 37 nM |
